Here are results for 17 molecules from patent US20200255503A1 (Regeneron, published 2020).

Positions count from the first letter of the chain named. In names and notes the source's numbering stands.

Assay [1] addresses T1, Fel d1 (B-A)-mmH (cat (Felis domesticus)).
T1 construct: Expressed in CHO cells; also called rFel d1.mmH; rFel d1-mmH
The assay is described as follows: SPR, mAb captured, Fel d1 (B-A)-mmH injected, 25 C.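 Also: rate constants obtained by fitting sensorgrams to a one-to-one binding model, Kd computed as koff over kon, half-life derived from koff.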
Method: Antibody-antigen association was monitored for 3 to 5 minutes, and the dissociation of antigen from the captured monoclonal antibody (in running buffer alone at 25° C.) was monitored for 10 or 15 minutes. Kinetic association (kₐ) and dissociation (kₐ) rate constants were determined by processing and fitting the data to a 1:1 binding model using Scrubber 2.0 curve fitting software. Binding dissociation equilibrium constants (KD) and dissociative half-lives (t_{1/2}) were calculated from the kinetic rate constants as: KD=kd/kₐ and t_{1/2}=ln(2)/kₐ.

The target in assay [2] is T1, Fel d1 (B-A)-mmH. Nature of the assay: SPR Biacore T200, mAb captured by anti-human Fc, antigen injected. A general note: Surface plasmon resonance follows binding to a sensor surface in real time, without labels.
From the text: (§1) The binding kinetic parameters were obtained by globally fitting the double reference subtracted data to a 1:1 binding model with mass transport limitation using Biacore T200 Evaluation Software, version 1.0.
The target in another assay is rFel d1.mFc (dimeric) (cat (Felis domesticus)). The description is as above.
rFel d1.mFc (dimeric) (cat (Felis domesticus)), sequence (chain, as listed by the source limits assumed): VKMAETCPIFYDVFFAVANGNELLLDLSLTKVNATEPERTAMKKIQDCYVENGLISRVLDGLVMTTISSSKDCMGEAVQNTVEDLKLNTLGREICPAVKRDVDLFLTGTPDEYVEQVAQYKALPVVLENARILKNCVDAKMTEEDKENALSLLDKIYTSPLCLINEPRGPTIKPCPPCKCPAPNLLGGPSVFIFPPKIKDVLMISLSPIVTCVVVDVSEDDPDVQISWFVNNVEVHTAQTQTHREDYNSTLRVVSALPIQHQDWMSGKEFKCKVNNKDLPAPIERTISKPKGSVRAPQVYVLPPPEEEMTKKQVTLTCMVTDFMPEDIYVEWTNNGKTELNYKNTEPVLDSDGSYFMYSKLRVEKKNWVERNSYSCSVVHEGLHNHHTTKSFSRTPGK

T1 sequence (chain, as listed by the source limits assumed): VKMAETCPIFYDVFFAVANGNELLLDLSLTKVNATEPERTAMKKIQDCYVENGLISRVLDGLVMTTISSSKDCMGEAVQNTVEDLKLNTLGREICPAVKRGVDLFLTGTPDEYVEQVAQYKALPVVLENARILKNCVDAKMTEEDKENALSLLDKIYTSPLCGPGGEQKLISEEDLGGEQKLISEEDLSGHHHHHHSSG
From the text for rFel d1.mFc (dimeric): as §1

B1: H4H2864P (antibody, human IgG4, V domains shown)
VH: EVQLVESGGGLAQPGGSLRLSCAASGFTFNNYAMTWVRQAPGKGLDWVSAISDSGRSTFSADSVKGRFTISRDNSKNTLYLQMDSLRAEDTALYYCAKHRNWNYPVFDYWGQGTLVTVSS
VL: DIQLTQSPSFLSASVGDRVTITCWASQGISSYLAWYQQKPGKAPKLLIYSASTLQSGVPSRFSGSGSGTEFTLTISSLQPEDFATYYCQQLNSYPFTFGPGTKVDIK
notes: human IgG4 Fc (prefix H4H)
Broadly, the Kd is a measure of binding affinity in units of concentration. Low readings indicate higher affinity, high ones lower affinity. What is called koff is the first-order rate constant of dissociation. A low value points to a long-lived complex. The term kon denotes the second-order rate constant of association. Low values mean slow association, high ones fast association. For B1, in the assay with Fel d1 (B-A)-mmH [1], the Kd amounted to 0.576 nM, the off-rate constant (koff) amounted to 0.000309 s⁻¹, the kon amounted to 537000 M⁻¹ s⁻¹ and the t1/2 stood at 37 min.

B2: H4H2594S (antibody, human IgG4, V domains shown)
VH: EVQLVESGGGLVKPGGSLRLSCAASGFTFSDYYMNWIRQAPGKGLEWVSYISSSGSSIYYADSVKGRFTISRDNAKNSLYLLMNSLRAEDTAVYYCARDGKYNSSPGDYWGQGTLVTVSS
VL: DIQMTQSPSSLSASVGDRVTIACRASQGISNYLAWFQQKPGKAPKSLIYAASSLQSGVPSKFSGSGSGTDFTLTISSLQPEDFATYYCQQYNSYPLTFGGGTKVEIKR
notes: human IgG4 Fc (prefix H4H)
In the assay with Fel d1 (B-A)-mmH [1], B2 displayed a Kd of 0.402 nM, a koff of 0.000521 s⁻¹, a kon of 1.3e+06 M⁻¹ s⁻¹ and a t1/2 of 22 min.

B3: H4H2607B (antibody, human IgG4, V domains shown)
VH: B2 VH with V48I, I51L, S57A, I58T, L82Q, S104T, S105V, P106A, L115T
VL: DIQLTQSPSSLSASVGDRVTITCRASQGIRNDLGWYQQKPGKAPKRLIYAASSLQSGVPSRFSGSGSGTEFTLTISSLQPEDFATYYCLQHNSYPYTFGQGTKVEIKR
notes: human IgG4 Fc (prefix H4H)
Take B3: in the assay with Fel d1 (B-A)-mmH [1], the Kd was found to be 0.364 nM, the koff stood at 0.000563 s⁻¹, the on-rate constant (kon) worked out at 1.55e+06 M⁻¹ s⁻¹ and the t1/2 was 21 min.

B4: H1M1230N (antibody, V domains shown)
VH: EVQLVESGGGLVQPGGSLRLSCTASGFIFSNFWMTWVRQAPGKGLEWVANIKQDGSETYCVDSVKGRFTISRDHAKNSLFLQMNSLRAEDTAVYYCARGAGTIYYYGMDVWGQGTTVIVSS
VL: DIQMTQSPSSVSASVGDRLTITCRASQDISSWLTWYQQKPGKAPNLLIYAASGLQSGVPSRFSGSGSGTDFTLTISNLQPEDFATYYCQQANSFPLTFGQGTRLEIK
notes: chimeric, human variable domains with mouse Fc (prefix H1M)
In the assay with Fel d1 (B-A)-mmH [1], B4 had a dissociation constant Kd of 1.31 nM, a koff of 0.00051 s⁻¹, an on-rate (kon) of 388000 M⁻¹ s⁻¹ and a t1/2 of 23 min.

B5: H1M1234N (antibody, V domains shown)
VH: QVQLQQSGPGLVKSSQTLSLTCAISGDSVSSNSVAWNWIRQSPSRGLEWLGRTYYRSKWYNDYAVSVKSRININPDTSKNHFSLQLNSVTPEDTAVYFCARAWNWYYLDYWGQGTLVTVSS
VL: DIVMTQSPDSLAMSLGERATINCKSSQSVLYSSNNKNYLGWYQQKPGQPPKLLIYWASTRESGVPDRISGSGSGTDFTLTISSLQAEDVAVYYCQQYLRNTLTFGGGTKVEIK
notes: as for B4
B5: in the assay with Fel d1 (B-A)-mmH [1], the Kd was 5.58 nM, the koff amounted to 0.00142 s⁻¹, the kon was determined as 254000 M⁻¹ s⁻¹ and the t1/2 amounted to 8 min.

B6: H1M1241N (antibody, V domains shown)
VH: EVQLVESGGGLVKPGGSLRLSCAASGFTFSSYSMNWVRQAPGKGLEWVSSISSRSSYIYYADSVKGRFTISRDNAKNSLYLQMNSLRAEDTAVYYCARDHIVVVPGASYYYYGMDVWGQGTTVTVSS
VL: DIQMTQSPSSLSASVGDRVTITCRASQGIRNDLGWYQQKPGKAPKRLISAASSLQSGVPSRFSGSGSGTEFTLTISSLQPEDFATYYCLQHNSYPLTFGGGTKVEIK
notes: as for B4
In the assay with Fel d1 (B-A)-mmH [1], B6 gave a Kd of 0.331 nM, a koff of 0.000112 s⁻¹, a kon of 337000 M⁻¹ s⁻¹ and a t1/2 of 104 min.

B7: H2M1233N (antibody, mouse IgG2, V domains shown)
VH: QVVLVESGGGVVQPGRSLRLSCAASGFTFSSYGMHWVRQAPGKGLEWVAVIWYDGSNKYYVDSVKGRFTISRDNSNNTIYLQMNSLRAEDTAVYYCARSLIPVAGTDPIFGYWGQGTLVTVSS
VL: DIQMTQSPSTLSASVGDRVTITCRASQSVSSWLAWYQQKPGKAPKLLIFKASGLESGVPFRFSGSGSGTEFTLTISSLQPDDFATYYCQQYNTYSPTFGQGTKVEIK
notes: chimeric, human variable domains with mouse IgG2 Fc (prefix H2M)
In the assay with Fel d1 (B-A)-mmH [1], B7 had a Kd of 0.544 nM, a koff of 0.000166 s⁻¹, a kon of 305000 M⁻¹ s⁻¹ and a t1/2 of 70 min.

B8: H2M1242N (antibody, mouse IgG2, V domains shown)
VH: EVQLVESGGGLVRPGGSLRLSCAASGFTFTSYAMNWVRQAPGKGLEWVSSISSYSSYIYIADSVKGRFTLSRDNAKNSLYLQMHSLRPEDTAVYFCAREGYSAYSYFDFWGRGTLVTVSS
VL: B7 VL with S30I, F49H, K50R, G53S, F60S, S77G, S95F, I106V
notes: as for B7
For the molecule B8, in the assay with Fel d1 (B-A)-mmH [1], binding was characterised by a dissociation constant (Kd) of 0.449 nM, the koff turned out to be 0.000122 s⁻¹, the on-rate constant (kon) is 272000 M⁻¹ s⁻¹ and the t1/2 is 94 min.

B9: H2M1237N (antibody, mouse IgG2, V domains shown)
VH: B7 VH with N57I, V61A, S99A
VL: B7 VL with A51T
notes: as for B7
In the case of B9, in the assay with Fel d1 (B-A)-mmH [1], the Kd was determined as 0.458 nM, the koff came to 0.000165 s⁻¹, the on-rate (kon) was 359000 M⁻¹ s⁻¹ and the t1/2 came out at 70 min.

B10: H4H2597B (antibody, human IgG4, V domains shown)
VH: EVQLVESGGGLVQPGGSLRLSCAVSGFTFSNYAMNWVRQAPGKGLEWVSVISDSGRSTYYADSVKGRFTISRDNSKNTLYLQMNSLRAEDTAVYFCAKRYNWNLHYFDYWGQGTTVTVSS
VL: EIVLTQSPDFQSVTPKEKVTITCRASQSIGGSLHWYQQKPDQSPKLLIKYASQSFSGVPSRFSGSGSGTDFTLTINSLEAEDAATYYCLQSSSLRTFGQGTKVEIKR
notes: human IgG4 Fc (prefix H4H)
B10: in the assay with Fel d1 (B-A)-mmH [1], the dissociation constant Kd worked out at 0.501 nM, the koff was 0.000558 s⁻¹, the kon came to 1.12e+06 M⁻¹ s⁻¹ and the t1/2 turned out to be 21 min.

B11: H4H2606B (antibody, human IgG4, V domains shown)
VH: EVQLVESGGGLVKPGGSLRLSCAASGFTFSDYYMNWIRQAPGKGLEWVSYISSSGNSIYYADSVKGRFTISRDNAKNSLFLQMSSLRAEDTAVYYCARDGRYNDRRRGYYWGQGTLVTVSS
VL: B10 VL with L4M, G31S
notes: human IgG4 Fc (prefix H4H)
Consider B11, for which, in the assay with Fel d1 (B-A)-mmH [1], the Kd was 0.388 nM, the koff worked out at 0.000486 s⁻¹, the kon turned out to be 1.26e+06 M⁻¹ s⁻¹ and the t1/2 is 24 min.

B12: H4H2797P (antibody, human IgG4, V domains shown)
VH: QVQLVESGGGVVLPGRSLRLSCAASGFTFSSYLMYWVRQAPGKGLEWVAVIWYDGSNKFYGDSVKGRFTISRDNSKNTLYLQMNSLRAEDTAVYYCARDNGNSGYEDSWNAFDIWGQGTMVTVSS
VL: DIQMTQSPSSLSASVGDRVTITCRASQDIYNYLAWFQQKPGKAPKSLIYAASSLQTGVPSQFSGSGSGTDFTLTISSLQPEDFATYYCQQYNNYPFTFGPGTKVDIK
notes: human IgG4 Fc (prefix H4H)
In the assay with Fel d1 (B-A)-mmH [1], B12 displayed a Kd of 4.69 nM, a koff of 0.00205 s⁻¹, a kon of 437000 M⁻¹ s⁻¹ and a t1/2 of 6 min.

B13: H4H2645P (antibody, human IgG4, V domains shown)
VH: EVQLVESGGGLVQPGGSLRLSCAASGFTFSTYAMHWVRQAPGKGLEWVSSISGRGRNSDHADSVKGRFTISRDNSKNTLYLQMNSLRAEDTAVYYCARTEYFHHWGQGTLVTVSS
VL: B12 VL with V19I, Y30N, A50G, T56S, Q61K, N92S, N93S
notes: human IgG4 Fc (prefix H4H)
In the assay with Fel d1 (B-A)-mmH [1], B13 yielded a Kd of 0.368 nM, an off-rate constant (koff) of 0.000179 s⁻¹, a kon of 487000 M⁻¹ s⁻¹ and a t1/2 of 65 min.

B14: H4H2636B (antibody, human IgG4, V domains shown)
VH: EVQLVESGGGLVQPGGSLRLSCAASGFTFSSYAMSWVRQAPGKGLEWVSAISGRGYNADYADSVKGRFTISRDNSKNTLYLQMNSLRAEDTAVYYCAKLEYFDYWGQGTTVTVSS
VL: DIQLTQSPSTLSASVGDRVTITCRASQSISSWLAWYQQKPGKAPKLLIYKASSLESGVPSRFSGSGSGTDFTLTISSLRPEDFATYYCQQYNSYPLTFGGGTKVEIKR
notes: human IgG4 Fc (prefix H4H)
In the assay with Fel d1 (B-A)-mmH [1], B14 gave a Kd of 0.924 nM, a koff of 0.000228 s⁻¹, a kon of 247000 M⁻¹ s⁻¹ and a t1/2 of 51 min.

B15: H4H2636P (antibody, human IgG4, V domains shown)
VH: B14 VH with T110L
VL: DIQMTQSPSTLSASVGDRVTITCRASQSISSWLAWYQQKPGKAPKLLIYKASSLESGVPSRFSGSGSGTDFTLTISSLRPEDFATYYCQQYNSYPLTFGGGTKVEIK
notes: human IgG4 Fc (prefix H4H); also called REGN1909
B15: in the assay with Fel d1 (B-A)-mmH [1], the dissociation constant (Kd) stood at 0.912 nM, the off-rate constant (koff) was found to be 0.000235 s⁻¹, the association rate constant (kon) turned out to be 257000 M⁻¹ s⁻¹ and the t1/2 stood at 49 min. In the assay with Fel d1 (B-A)-mmH [2], this molecule registered a Kd of 0.912 nM, a T1/2 of 49 min, a koff of 0.000235 s⁻¹ and an on-rate constant (kon) of 257000 M⁻¹ s⁻¹. In the assay with rFel d1.mFc (dimeric), this molecule came in with a Kd of 0.0978 nM, a T1/2 of 254 min, a koff of 4.55e-05 s⁻¹ and an on-rate (kon) of 466000 M⁻¹ s⁻¹.

B16: H4H1616N (antibody, human IgG4, V domains shown)
VH: EVELLESGGGLVQPGGSLRLSCAASGFTFSSYAMSWVRQAPGKGLEWVSSISGRVGSTHFADSVKGRFTFSRDNSKNTLYLQLSSLRAEDTAVYYCARSRGAAYFDYWGQGTLVTVSS
VL: DIQMTQSPSSLSASVGDRVTITCQANQDISNFLNWYQQRPGKAPNLLIYAASNLETGVPSRFSGSGSGTDFTFTISSLQPEDIATYYCQHYDNFPFTFGPGTKVDIK
notes: human IgG4 Fc (prefix H4H)
In the assay with Fel d1 (B-A)-mmH [1], B16 showed a dissociation constant (Kd) of 8.21 nM, an off-rate (koff) of 0.00188 s⁻¹, a kon of 229000 M⁻¹ s⁻¹ and a t1/2 of 6 min.

B17: H2M1236N (antibody, mouse IgG2, V domains shown)
VH: QVQLQESGPGLVKPSETLSLTCTVSGGSISNYYWSWIRQPPGKGLEWIGYIYYSGRTNYNPSLKSRVTISVDTSKNQFSLKLRSVTAADTAVYYCARHRITRTADSFDYWGQGTLVTVSS
VL: DIQMTQSPSSLSASVGDRVTITCQASQDITNYLNWYQQKPGKAPKLLIYDASNLETGVPSRFSGSGSGTDFTFTISSLQPEDVATFYCHQYGDLPYTFGQGTKLEIK
notes: as for B7
With B17, in the assay with Fel d1 (B-A)-mmH [1], binding was put at a Kd of 0.558 nM, the koff amounted to 0.000232 s⁻¹, the kon turned out to be 415000 M⁻¹ s⁻¹ and the t1/2 came to 50 min.
